Results as given in patent US20250136687A1 (SHANDONG SIMCERE BIOPHARMACEUTICAL, published 2025).
Like-named read-outs stand apart in the source and are kept apart here.

What was measured:
[1] = biological target: T1, human CD3 on the cell surface (Jurkat cells, expanded human T cells, Jurkat-Lucia NFAT cells, human PBMC) (human, UniProt P07766 23-207; P04234 22-171; P09693 23-182); assay: FACS, Jurkat cells
T1 construct: whole, on cells; Endogenous CD3 within the TCR-CD3 complex on cells (also zeta chains and TCR); the cell type is named under assay
Procedure: (§1) The binding of the chimeric antibodies to CD3 on the cell surface was analyzed by detecting the binding of the antibodies to Jurkat cells and human T cells. Suspension cells Jurkat cells were scale-up cultured in T-75 cell culture flasks to the logarithmic growth phase, the supernatant of the medium was discarded by centrifugation, and the cell pellet was washed 2 times with PBS for later use. The expanded human T cells were washed 2 times with PBS for later use. After counting the cells in the previous step, the cell pellet was resuspended with [PBS+2% (w/w) BSA] blocking solution to 4×10⁶ cells/ml, and added to a 96-well FACS reaction plate at 50 μl/well, and then the chimeric antibody to be tested was added at 50 μl/well, and incubated at 4° C. for 1 h. The cells were centrifuged and washed 3 times with a PBS buffer. […] The cells were centrifuged and washed 5 times with PBS, and FACS (FACS Canto™, purchased from BD Company) was used for detection and result analysis. Data analysis was performed by software (CellQuest) to obtain the mean fluorescence […] (MFI) of the cells. And then software (GraphPad Prism8) was used for analysis, data fitting, and EC50 value calculation. The same method was used to simultaneously detect the binding of the chimeric antibodies to endogenous CD3 negative cells MOLT4 cells.

[2] = biological target: T1, human CD3 on the cell surface (Jurkat …); assay: FACS, Jurkat cells; remark: listed apart in the source
Procedure: as §1

human CD3ε/δ-His = biological target: T2, human CD3ε/δ-His (human, UniProt P07766 23-126; P04234 22-105); assay: ELISA, coated antigen
T2 construct: Bought recombinant heterodimer with His tag; also called human CD3ε/δ protein
Procedure: (§2) To detect the binding activity of the humanized antibodies to CD3 protein, CD3 protein was diluted with PBS to the final concentration of […], then added to a 96-well ELISA plate at 50 μL/well, and the plate was sealed with a plastic film, and incubated overnight at 4° C. On the next day, the plate was washed 2 times with PBS, and a blocking solution [PBS+2% (v/v) BSA] was added for blocking at room temperature for 2 h. The blocking solution was poured off, and the antibody (initial concentration of 100 nM, and gradient dilution at 1:10) or a negative control antibody was added at 50 µl/well. After incubation at 37° C. for 2 h, the plate was washed 3 times with PBS. […] TMB substrate was added at 50 μl/well, and incubated at room temperature for 10 min, and then a stop solution (1.0 N HCl) was added at 50 μl/well. The OD450 nm values were read by an ELISA microplate reader (Multimode Plate Reader, EnSight, purchased from Perkin Elmer).

[3] = biological target: T3, recombinant human CD3ε-ECD His protein (human, UniProt P07766 23-126); assay: ELISA, coated antigen
T3 construct: extracellular domain; also called human CD3ε-His; CD3ε antigen protein; not shown: His tag
Procedure: as §2

monkey CD3ε/δ-His = biological target: T4, monkey CD3ε/δ-His (monkey, UniProt Q95LI5 22-117; Q95LI8 22-105); assay: ELISA, coated antigen
T4 construct: Bought recombinant heterodimer with His tag

monkey CD3ε protein = biological target: T5, monkey CD3ε protein (monkey, UniProt Q95LI5 22-117, limits assumed); assay: ELISA, coated antigen
T5 sequence (looked up): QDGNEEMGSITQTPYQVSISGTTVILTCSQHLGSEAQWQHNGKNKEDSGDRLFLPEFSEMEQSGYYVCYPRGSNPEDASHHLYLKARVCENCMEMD

[4] = biological target: T1, human CD3 on the cell surface (Jurkat …); assay: cell-based or functional assay
[5] = biological target: T1, human CD3 on the cell surface (Jurkat …); assay: cell-based or functional assay; remark: listed apart in the source
[6] = biological target: T1, human CD3 on the cell surface (Jurkat …); assay: FACS, expanded human T cells
Procedure: as §1

[7] = biological target: T1, human CD3 on the cell surface (Jurkat …); assay: FACS, expanded human T cells; remark: listed apart in the source
Procedure: as §1

[8] = biological target: T1, human CD3 on the cell surface (Jurkat …); assay: FACS, expanded human T cells; remark: listed apart in the source
Procedure: as §1

[9] = biological target: T1, human CD3 on the cell surface (Jurkat …); assay: FACS, expanded human T cells; remark: listed apart in the source
[10] = biological target: T6, cynomolgus monkey CD3 on the surface of expanded monkey T cells (cynomolgus monkey, UniProt Q95LI5 22-198; Q95LI8 22-171; Q95LI7 23-181); assay: FACS, expanded monkey T cells
T6 construct: whole, on cells; Endogenous CD3 within the TCR-CD3 complex on T cells expanded from cynomolgus monkey PBMC
T6 sequence (Q95LI5 22-198, chain 1 of 3): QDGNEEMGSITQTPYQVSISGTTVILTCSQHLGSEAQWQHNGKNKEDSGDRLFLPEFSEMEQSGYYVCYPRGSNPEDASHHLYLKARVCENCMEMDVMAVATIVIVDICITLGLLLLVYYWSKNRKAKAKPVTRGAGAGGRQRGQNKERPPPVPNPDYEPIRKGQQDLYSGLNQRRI
T6 sequence (Q95LI8 22-171, chain 2 of 3): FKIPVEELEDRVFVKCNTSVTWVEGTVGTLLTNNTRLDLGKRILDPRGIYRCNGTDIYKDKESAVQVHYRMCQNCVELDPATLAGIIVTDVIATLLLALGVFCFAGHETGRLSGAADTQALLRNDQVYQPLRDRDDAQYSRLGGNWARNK
T6 sequence (Q95LI7 23-181, chain 3 of 3): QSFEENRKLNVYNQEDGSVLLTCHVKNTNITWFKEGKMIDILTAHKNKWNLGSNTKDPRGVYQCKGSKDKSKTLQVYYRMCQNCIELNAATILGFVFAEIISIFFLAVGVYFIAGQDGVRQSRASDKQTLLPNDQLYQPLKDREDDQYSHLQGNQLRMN

T3 sequence (P07766 23-126): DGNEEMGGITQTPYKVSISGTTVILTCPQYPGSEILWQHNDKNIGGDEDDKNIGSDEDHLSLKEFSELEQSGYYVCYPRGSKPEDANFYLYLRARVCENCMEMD
T2 sequence (P07766 23-126, stated change not applied, form in doubt, chain 1 of 2): as the sequence (P07766 23-126) above
T2 sequence (P04234 22-105, stated change not applied, form in doubt, chain 2 of 2): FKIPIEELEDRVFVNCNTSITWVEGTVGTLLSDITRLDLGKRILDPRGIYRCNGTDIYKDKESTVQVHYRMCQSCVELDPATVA
T1 sequence (P07766 23-207, chain 1 of 3): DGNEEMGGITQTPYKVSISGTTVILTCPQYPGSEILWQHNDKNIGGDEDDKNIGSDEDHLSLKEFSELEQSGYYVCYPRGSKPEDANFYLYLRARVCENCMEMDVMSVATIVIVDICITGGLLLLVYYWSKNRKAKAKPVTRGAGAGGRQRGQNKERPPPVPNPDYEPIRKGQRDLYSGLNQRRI
T1 sequence (P04234 22-171, chain 2 of 3): as the sequence (Q95LI8 22-171, chain 2 of 3) above, with V5I, K15N, V20I, T32S, N33D, N34I, A64T, N74S, L83V, R141H counted along it
T1 sequence (P09693 23-182, chain 3 of 3): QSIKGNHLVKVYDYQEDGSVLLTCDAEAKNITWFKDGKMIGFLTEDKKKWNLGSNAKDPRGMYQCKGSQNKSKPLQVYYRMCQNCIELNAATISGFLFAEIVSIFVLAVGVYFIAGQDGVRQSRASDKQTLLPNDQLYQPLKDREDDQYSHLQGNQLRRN

B1: F2B-hIgG1 (antibody, V domains shown)
VH: EVQLVESGGGLVQPGRSLRLSCAASGFTFDDYAMHWVRQAPGKGLEWVSGISWNSGSIGYADSVKGRFTISRDNAKNSLYLQMNSLRAEDTALYYCAKDSRGYGDYRLGGAYWGQGTLVTVSS
VL: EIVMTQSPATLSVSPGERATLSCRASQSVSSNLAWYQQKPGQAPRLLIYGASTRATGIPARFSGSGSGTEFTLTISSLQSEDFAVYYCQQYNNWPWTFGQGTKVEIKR
notes: also called F2Bs
- EC50 [1]: 20.4 nM
- MFI_Max [1]: 4860 MFI
- EC50 [2]: 6.18 nM
- MFI_Max [2]: 2080 MFI
- max-OD450 (human CD3ε/δ-His): 0.16 OD450
- max-OD450 [3]: 0.16 OD450
- max-OD450 (monkey CD3ε/δ-His): 0.05 OD450
- binding result (monkey CD3ε protein): no binding (tested: 100 nM (initial concentration))
- max-OD450 (monkey CD3ε protein): 0.06 OD450
- EC50 (nM), luciferase reporter, Jurkat-Lucia NFAT cells [4]: 23.7 nM
- Maximum response value (RLU) [4]: 14500 RLU
- EC50 (nM), luciferase reporter, Jurkat-Lucia NFAT cells [5]: 7.41 nM
- Maximum response value (RLU) [5]: 6560 RLU
- EC50 [6]: 7.56 nM
- MFI_Max [6]: 8780 MFI
- EC50 [7]: 15.8 nM
- MFI_Max [7]: 2360 MFI
- EC50 [8]: 5.71 nM
- MFI_Max [8]: 5080 MFI
- EC50 [9]: 7.03 nM
- max_MFI [9]: 9270 MFI
- max_MFI [10]: 72 MFI

B2: 40G5c-hIgG1 (antibody, V domains shown)
VH: EVQLVQSGAEVKKPGASVKVSCKASGYTFTNYYIHWVRQAPGQGLEWIGWIYPGDGNTKYNEKFKGRATLTADTSTSTAYLELSSLRSEDTAVYYCARDSYSNYYFDYWGQGTLVTVSS
VL: DIVMTQSPDSLAVSLGERATINCKSSQSLLNSRTRKNYLAWYQQKPGQPPKLLIYWASTRESGVPDRFSGSGSGTDFTLTISSLQAEDVAVYYCTQSFILRTFGQGTKVEIKR
- EC50 [1]: 0.1 nM
- MFI_Max [1]: 29500 MFI
- EC50 [2]: 0.47 nM
- MFI_Max [2]: 11300 MFI
- EC50 (human CD3ε/δ-His): 0.36 nM
- max-OD450 (human CD3ε/δ-His): 2.83 OD450
- EC50 [3]: 0.22 nM
- max-OD450 [3]: 2.59 OD450
- EC50 (monkey CD3ε/δ-His): 0.0754 nM
- max-OD450 (monkey CD3ε/δ-His): 2.52 OD450
- EC50 (monkey CD3ε protein): 0.128 nM
- max-OD450 (monkey CD3ε protein): 2.96 OD450
- EC50 (nM), luciferase reporter, Jurkat-Lucia NFAT cells [4]: 1.74 nM
- Maximum response value (RLU) [4]: 33400 RLU
- EC50 (nM), luciferase reporter, Jurkat-Lucia NFAT cells [5]: 5.04 nM
- Maximum response value (RLU) [5]: 14300 RLU
- EC50 [6]: 0.46 nM
- MFI_Max [6]: 40900 MFI
- EC50 [7]: 0.66 nM
- MFI_Max [7]: 15400 MFI
- EC50 [8]: 0.99 nM
- MFI_Max [8]: 26500 MFI
- EC50 [9]: 2.09 nM
- max_MFI [9]: 33500 MFI
- EC50 [10]: 0.89 nM
- max_MFI [10]: 24100 MFI
